Reference: patent publication US20250320281A1

Legend:
Experiment in all cases: cell-based or functional assay
[1] = biological target: HIV-1 Env of pseudovirus MGRM-F1-013 (HIV-1)
[2] = biological target: HIV-1 92BR020 Env on pseudotyped virus (HIV-1 isolate 92BR020)
[3] = biological target: HIV-1 92RW020 Env (HIV-1 92RW020)
[4] = biological target: HIV-1 ADA Env (HIV-1 ADA)
[5] = biological target: HIV-1 SF162 Env on pseudotyped virus (HIV-1 isolate SF162)
[6] = biological target: HIV-1 Env of pseudovirus 92WR021 (subtype A) (HIV-1)
[7] = biological target: HIV-1 Env of pseudovirus 92RW008 (subtype A) (HIV-1)
[8] = biological target: HIV-1 Env of isolate MGRM-C-028 (clade C pseudovirus) (HIV-1)
[9] = biological target: HIV-1 Env of isolate MGRM-F1-004 (clade F), on pseudovirus (HIV-1)
[10] = biological target: HIV-1 Env of pseudovirus 92UG031 (subtype A) (HIV-1)
[11] = biological target: HIV-1 Env of isolate APV17 (HIV-1)
[12] = biological target: HIV-1 Env of isolate MGRM-F1-012 (clade F), on pseudovirus (HIV-1)
[13] = biological target: HIV-1 Env of pseudovirus 94UG103 (subtype A) (HIV-1)
[14] = biological target: HIV-1 Env of isolate MGRM-C-027 (clade C pseudovirus) (HIV-1)
[15] = biological target: HIV-1 Env of isolate MGRM-Chronic-B-002 (HIV-1)
[16] = biological target: HIV-1 Env of isolate MGRM-F1-010 (clade F), on pseudovirus (HIV-1)
[17] = biological target: HIV-1 Env of isolate MGRM-F1-013 (clade F), on pseudovirus (HIV-1)
[18] = biological target: HIV-1 Env of isolate MGRM-Chronic-B-008 (HIV-1)
[19] = biological target: HIV-1 Env of isolate APV6 (HIV-1)
[20] = biological target: HIV-1 Env of pseudovirus 92WR026 (subtype A) (HIV-1)
[21] = biological target: HIV-1 Env of isolate MGRM-C-024 (clade C pseudovirus) (HIV-1)
[22] = biological target: HIV-1 Env of isolate CAAN.A2 (HIV-1)
[23] = biological target: HIV-1 Env of isolate MG RM-D-011 (clade D), on pseudovirus (HIV-1)
[24] = biological target: HIV-1 Env of isolate MGRM-Chronic-B-017 (HIV-1)
[25] = biological target: HIV-1 Env of isolate MG RM-D-016 (clade D), on pseudovirus (HIV-1)
[26] = biological target: HIV-1 Env of isolate MG RM-D-026 (clade D), on pseudovirus (HIV-1)
[27] = biological target: HIV-1 Env of isolate MGRM-F1-016 (clade F), on pseudovirus (HIV-1)
[28] = biological target: HIV-1 Env of isolate MG RM-D-012 (clade D), on pseudovirus (HIV-1)
[29] = biological target: HIV-1 Env of isolate MG RM-D-002 (clade D), on pseudovirus (HIV-1)
[30] = biological target: HIV-1 Env of pseudovirus MGRM-A-005 (subtype A) (HIV-1)
[31] = biological target: HIV-1 Env of isolate MG RM-D-003 (clade D), on pseudovirus (HIV-1)
[32] = biological target: HIV-1 Env of pseudovirus 93WR029 (subtype A) (HIV-1)
[33] = biological target: HIV-1 MGRM-C-028 envelope glycoprotein (Env) on pseudovirus (HIV-1)
[34] = biological target: HIV-1 JRFL envelope glycoprotein (Env) on pseudovirus (HIV-1)
[35] = biological target: HIV-1 APV13 envelope glycoprotein (Env) on pseudovirus (HIV-1)
[36] = biological target: HIV-1 MGRM-D-018 envelope glycoprotein (Env) on pseudovirus (HIV-1)
[37] = biological target: HIV-1 Env of isolate 93UG077 (subtype A) (HIV-1)
[38] = biological target: HIV-1 envelope glycoprotein (Env) of isolate MGRM-Chronic-B-001 (HIV-1)
[39] = biological target: HIV-1 envelope glycoprotein (Env) of isolate 92BR020 (HIV-1)
[40] = biological target: HIV-1 Env of isolate 94 KE 105 (subtype AC) (HIV-1)
[41] = biological target: HIV-1 Env of isolate 92WR021 (subtype A) (HIV-1)
[42] = biological target: HIV-1 envelope glycoprotein (Env) of isolate JR-FL (HIV-1)

4970_K22 (PGT-144) (antibody), sequence (VH): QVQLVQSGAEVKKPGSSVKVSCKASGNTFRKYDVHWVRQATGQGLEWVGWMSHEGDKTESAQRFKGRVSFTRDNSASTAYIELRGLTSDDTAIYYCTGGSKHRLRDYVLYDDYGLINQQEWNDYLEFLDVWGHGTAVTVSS
4970_K22 (PGT-144) (antibody), sequence (VL): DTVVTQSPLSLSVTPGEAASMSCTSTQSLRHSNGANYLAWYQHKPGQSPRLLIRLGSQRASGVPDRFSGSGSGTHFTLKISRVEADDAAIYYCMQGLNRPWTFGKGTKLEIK
4980_N08 (PGT-143) (antibody), sequence (VH): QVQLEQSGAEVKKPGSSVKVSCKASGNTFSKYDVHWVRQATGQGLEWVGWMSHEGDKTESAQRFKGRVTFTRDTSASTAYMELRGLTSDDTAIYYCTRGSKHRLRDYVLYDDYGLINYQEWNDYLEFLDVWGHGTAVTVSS
4980_N08 (PGT-143) (antibody), sequence (VL): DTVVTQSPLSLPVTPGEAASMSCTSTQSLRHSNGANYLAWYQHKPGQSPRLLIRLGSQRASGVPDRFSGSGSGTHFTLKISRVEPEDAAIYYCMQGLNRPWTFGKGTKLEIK
1443_C16 (PG16) (TCN-116) (antibody), sequence (VH): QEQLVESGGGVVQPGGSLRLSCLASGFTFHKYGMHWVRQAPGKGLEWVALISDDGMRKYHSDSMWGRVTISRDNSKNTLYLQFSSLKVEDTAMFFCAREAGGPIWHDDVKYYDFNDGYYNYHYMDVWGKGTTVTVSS
1443_C16 (PG16) (TCN-116) (antibody), sequence (VL): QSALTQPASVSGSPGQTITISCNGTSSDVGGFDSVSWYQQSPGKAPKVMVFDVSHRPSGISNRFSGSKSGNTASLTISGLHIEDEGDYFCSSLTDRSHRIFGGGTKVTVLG

2F5 (antibody)
IC50 (µg/ml), pseudovirus neutralization [1]: 4.57 µg/mL

2G12 (antibody)
IC50 (µg/ml), pseudovirus neutralization [1]: > 50 µg/mL

1443_C16 (PG16) (TCN-116) (antibody)
Neutralizing Antibody Assay: IC50; Virus/Ab Incubation 1 hour [2]: > 50 µg/mL | Neutralizing Antibody Assay: IC50; Virus/Ab Incubation 18 hour [2]: > 50 µg/mL | IC50 (ug/ml), pseudovirus neutralization, TZM-bl assay [3]: 0.09 µg/mL | IC50 (ug/ml), pseudovirus neutralization, TZM-bl assay [4]: 0.004 µg/mL | Neutralizing Antibody Assay: IC50; Virus/Ab Incubation 1 hour [5]: > 50 µg/mL | Neutralizing Antibody Assay: IC50; Virus/Ab Incubation 18 hour [5]: > 50 µg/mL

1495_C14 (PGC14) (antibody)
Neutralizing Antibody Assay: IC50; Virus/Ab Incubation 1 hour [2]: 1.17 µg/mL | Neutralizing Antibody Assay: IC50; Virus/Ab Incubation 18 hour [2]: 0.244 µg/mL | Neutralizing Antibody Assay: IC50; Virus/Ab Incubation 1 hour [5]: 0.0069 µg/mL | Neutralizing Antibody Assay: IC50; Virus/Ab Incubation 18 hour [5]: < 0.0025 µg/mL | IC50 (µg/ml), pseudovirus neutralization [1]: 6 µg/mL

1496_C09 (PG9) (TCN-109) (antibody)
IC50, pseudovirus neutralization [6]: 0.027 µg/mL | IC50, pseudovirus neutralization [7]: 0.006 µg/mL | IC50 (µg/mL), pseudovirus neutralization [8]: 0.067 µg/mL | IC50 (µg/mL), pseudovirus neutralization [9]: 0.175 µg/mL | IC50, pseudovirus neutralization [10]: 3.6 µg/mL | IC50 (µg/mL), pseudovirus neutralization [11]: 34.8 µg/mL | IC50 (µg/mL), pseudovirus neutralization [12]: 0.023 µg/mL | IC50, pseudovirus neutralization [13]: 0.34 µg/mL | IC50 (µg/mL), pseudovirus neutralization [14]: 5.36 µg/mL | IC50 (µg/mL), pseudovirus neutralization [15]: 3.44 µg/mL | IC50 (µg/mL), pseudovirus neutralization [16]: 0.012 µg/mL | IC50 (ug/ml), pseudovirus neutralization, TZM-bl assay [3]: 0.1 µg/mL | IC50 (µg/mL), pseudovirus neutralization [17]: 1.25 µg/mL | IC50 (µg/mL), pseudovirus neutralization [18]: 8.78 µg/mL | IC50 (µg/mL), pseudovirus neutralization [19]: 0.181 µg/mL | IC50, pseudovirus neutralization [20]: 0.164 µg/mL | IC50 (µg/mL), pseudovirus neutralization [21]: 0.227 µg/mL | IC50 (µg/mL), pseudovirus neutralization [22]: 19.3 µg/mL | IC50 (ug/ml), pseudovirus neutralization, TZM-bl assay [4]: 0.2 µg/mL | IC50 (µg/mL), pseudovirus neutralization [23]: 0.071 µg/mL | IC50 (µg/mL), pseudovirus neutralization [24]: 0.688 µg/mL | IC50 (µg/mL), pseudovirus neutralization [25]: 0.098 µg/mL | IC50 (µg/mL), pseudovirus neutralization [26]: 23.7 µg/mL | IC50 (µg/mL), pseudovirus neutralization [27]: 0.518 µg/mL | IC50 (µg/mL), pseudovirus neutralization [28]: 16.2 µg/mL | IC50 (µg/mL), pseudovirus neutralization [29]: 0.021 µg/mL | IC50, pseudovirus neutralization [30]: 0.75 µg/mL | IC50 (µg/mL), pseudovirus neutralization [31]: 0.033 µg/mL | IC50, pseudovirus neutralization [32]: 0.69 µg/mL | IC50 (µg/ml), pseudovirus neutralization [1]: 0.56 µg/mL

4858_P08 (PGT-123) (antibody)
neutralization IC50 [33]: 0.443 µg/mL | neutralization IC80 [33]: 2.8 µg/mL | neutralization IC90 [33]: 7.11 µg/mL | neutralization IC95 [33]: > 10 µg/mL | neutralization IC50 [34]: 0.0283 µg/mL | neutralization IC80 [34]: 0.0904 µg/mL | neutralization IC90 [34]: 0.178 µg/mL | neutralization IC95 [34]: 0.332 µg/mL | neutralization IC50 [35]: 0.222 µg/mL | neutralization IC80 [35]: 0.879 µg/mL | neutralization IC90 [35]: 1.87 µg/mL | neutralization IC95 [35]: 3.5 µg/mL | neutralization IC50 [36]: 0.0047 µg/mL | neutralization IC80 [36]: 0.0175 µg/mL | neutralization IC90 [36]: 0.0381 µg/mL | neutralization IC95 [36]: 0.0791 µg/mL

4970_K22 (PGT-144) (antibody)
IC50 (µg/mL), pseudovirus neutralization [37]: > 50 µg/mL | IC50 (µg/mL), pseudovirus neutralization [38]: > 50 µg/mL | IC50 (µg/mL), pseudovirus neutralization [39]: 44 µg/mL | IC50 (µg/mL), pseudovirus neutralization [40]: 0.29 µg/mL | IC50 (µg/mL), pseudovirus neutralization [41]: > 50 µg/mL | IC50 (µg/mL), pseudovirus neutralization [42]: > 50 µg/mL

4980_N08 (PGT-143) (antibody)
IC50 (µg/mL), pseudovirus neutralization [37]: > 50 µg/mL | IC50 (µg/mL), pseudovirus neutralization [38]: > 50 µg/mL | IC50 (µg/mL), pseudovirus neutralization [39]: 25.9 µg/mL | IC50 (µg/mL), pseudovirus neutralization [40]: 0.368 µg/mL | IC50 (µg/mL), pseudovirus neutralization [41]: > 50 µg/mL | IC50 (µg/mL), pseudovirus neutralization [42]: > 50 µg/mL
